# PMC5529448
# B1: human myelin protein P2 T51P (protein)
# chain: MSNKFLGTWKLVSSENFDDYMKALGVGLATRKLGNLAKPTVIISKKGDIIPIRTESTFKNTEISFKLGQEFEETTADNRKTKSIVTLQRGSLNQVQRWDGKETTIKRKLVNGKMVAECKMKGVVCTRIYEKV
# Molecular target: P02689
# Assay: dynamic light scattering; triplicates at +25 °C; 0.6–0.9 mg/ml protein; 0.3 M NaCl, 20 mM HEPES pH 7.5; proteins stored on ice for 24 h after SEC
# Settings: other: dynamic light scattering
protein,measurement,value
B1,Monomeric (%),98.3%
